# According to US20260028400A1 (AIMED BIO, published 2026):
# Changes are numbered by the printed parent chain.
# B1: P015004-vc-PAB-MMAE (antibody, IgG1, V domains shown)
# VH: EVQLLESGGGLVQPGGSLRLSCAASGFTFSDYAMAWVRQAPGKGLEWVSIIYPGDSETIYSPSFEGRFTISRDNSKNTLYLQMNSLRAEDTAVYYCARDTYWEGYFDLWGQGTLVTVSS
# VL: EIVLTQSPGTLSLSPGERATLSCRASQGISNYLAWYQQKPGQAPRLLIYDASNLESGIPDRFSGSGSGTDFTLTISRLEPEDFAVYYCQQYANLPYTFGQGTKVEIK
# modifications: maleimidocaproyl-valine-citrulline-p-aminobenzyloxycarbonyl monomethyl auristatin E on cysteine sulfhydryls of reduced disulfides; positions not given; average 3.0 drugs per antibody
# B2: P015044 scFv (scFv, V domains shown)
# VH: EVQLLESGGGLVQPGGSLRLSCAASGFTFSNYAMHWVRQAPGKGLEWVSIIYPDDDTRYNPSFRGRFTISRDNSKNTLYLQMNSLRAEDTAVYYCARDLLYAGDYWGQGTLVTVSS
# VL: QSVLTQPPSASGTPGQRVTISCGGNNIESKAVHWYQQLPGTAPKLLIYANNKRPSGVPDRFSGSKSGTSASLAISGLRSEDEADYYCQSYDSNKVVFGGGTKLTVL
# notes: HA-tagged scFv
# B3: P015022 scFv (scFv, V domains shown)
# VH: EVQLLESGGGLVQPGGSLRLSCAASGFTFSNYDMSWVRQAPGKGLEWVSSISSNGGSTYYADSVKGRFTISRDNSKNTLYLQMNSLRAEDTAVYYCAKCLLQFDYWGQGTLVTVSS
# VL: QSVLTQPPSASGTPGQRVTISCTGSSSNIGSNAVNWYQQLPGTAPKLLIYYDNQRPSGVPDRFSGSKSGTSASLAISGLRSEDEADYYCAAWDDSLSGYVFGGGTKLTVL
# notes: HA-tagged scFv
# B4: P015004 scFv (scFv, V domains shown)
# VH: B1 VH
# VL: B1 VL
# notes: HA-tagged scFv
# B5: P015018 scFv (scFv, V domains shown)
# VH: EVQLLESGGGLVQPDGSMRLICAASGFTFSSYAKHWVRQAPGKGLEWVSEIYTSGSTNYNPSLKSRFTISRDNSKNTLYLQMNSLRAEDTAVYYCARDTWWEGYFDLWGQGTLVTVSS
# VL: B1 VL with G28S, I29V, N31T, N53S, Y91S, A92Y, Y96H
# notes: HA-tagged scFv
# B6: P015016 scFv (scFv, V domains shown)
# VH: EVQLLESGGGLVQTGGSLRLSCAASGFTFSDYAMSWVRQAPGKGLEWVSAISHGGSSKYYADSVKGRFTISRDNSKNTLYLQMNSLRAEDTAVYYCARVSLDFDYWGQGTLVAVSS
# VL: QSVLTQPPSASGTPGQRVTISCSGSSSNIGSNTFNWYQQLPGTAPKLLIYADSHRPSGVPDRFSGSKSGTSASLAISGLRSEDEADYYCAAWDASLSAYVFGGGTKLTVL
# notes: HA-tagged scFv
# B7: P015028 scFv (scFv, V domains shown)
# VH: EVQLLESGGGMVQTGGSLRLSCAASGFTFSDYAMSWVRQAPGKGLEWVSAISYDNGNTYYADSVKGRFTISRDNSKNALYLQMNSLRAEDTAVYYCAKVNHRFDYWGQGTLVTVSS
# VL: B6 VL with D52N, A91S, A98G
# notes: HA-tagged scFv
# B8: P015020 scFv (scFv, V domains shown)
# VH: B3 VH with N31G, D33Y, S50V, S53H, N54D, G56S, C99V, L100K, L101Y, Q102I
# VL: B6 VL with S23T, S31N, F34V, H54N, A90D, A91T, A94S, S97N
# notes: HA-tagged scFv
# B9: P015039 scFv (scFv, V domains shown)
# VH: EVQLLESGGGLVQPGGSLRLSCAASGFTFSDYAMSWVRQAPGKGLEWVSWISPGGGNTYYADSVKGRFTISRDNSKNTLYLQMNSLRAEDTAVYYCAKGALMCLSATCSSDYGMDVWGQGTLVTVSS
# VL: QSVLTQPPSASGTPGQRVTISCTGSSSNIGNNAVSWYQQLPGTAPKLLIYSDNQRPSGVPDRFSGSKSGTSASLAISGLRSEDEADYYCGTWDYSLNGYVFGGGTKLTVL
# notes: HA-tagged scFv
# B10: P015024 scFv (scFv, V domains shown)
# VH: EVQLLESGGGLVQPGGSLRLSCAASGFTFSDYYMSWVRQAPGKGLEWVSLISPGSDSKYYADSVKGRFTISRDNSKNTLYLQMNSLRAEDTAVYYCAKIEPDFDYWGQGTLVTVSS
# VL: B6 VL with A91T, A94Y
# notes: HA-tagged scFv
# B11: P015023 scFv (scFv, V domains shown)
# VH: EVQLLESGGGLVQPGGSLRLSCAASGFTFSGYDMSWVRQAPGKGLEWVSGISHDGRSKYYADSVKGRFTVSRDNSKNTLYLQMNSLRAEDTAVYYCAKDVPFKMRFIFDYWGQGTLVTVSS
# VL: B6 VL with I20L, S23T, F34V, N35Y, H54Q, A90G, A91S, A94S, S97N
# notes: HA-tagged scFv
# B12: P015042 scFv (scFv, V domains shown)
# VH: EVQLLESGGGLVQPGGSLRLSCAASGFTFSDYAMSWVRQAPGKGLEWVSVISSDGGSIYYADSVKGRFTISRDNSKNTLYLQMNSLRAEDTAVYYCAKDRSRDMEVDFDYWGQGTLVTVSS
# VL: B9 VL with T23S, N31S, A33Y, S35T, S51D, D52S, N53S, N97S
# notes: HA-tagged scFv
# B13: P015017 scFv (scFv, V domains shown)
# VH: EVQLLESGGGLVQPGGSLRLSCAASGFTFSGYAMSWVRQAPGKGLEWVSVISPGSGSKYYADSVRGRFTVSRDNSKNTLYLQMNSLRAEDTAVYYCARYPLLRYAGALYSAYAMDVWGQGTLVTVSS
# VL: B6 VL with T33Y, F34V, N35S, D52N, A90G, A94S, S97N, A98G
# notes: HA-tagged scFv
# B14: P015014 scFv (scFv, V domains shown)
# VH: EVQLLESGGGLVQPGGSLRLSCAVSGFTFSSYSMSWVRQAPGKGLEWVSAISPGDSNKYYADSVKGRFTISRDNSKNTLYLQINSLRAEDTAVYYCARTFPYFDYWGQGTLVTVSS
# VL: QSVLTQPPSASGTPGERVTISCSSSSSNIGSNYVNWYQQLPGTAPKLLIYDNSQRPSGVPDRFSGSKSGTSASLAISGLRSEDEADYYCGSWDDSLSGYVFGGGTKLTVL
# notes: HA-tagged scFv
# B15: P015021 scFv (scFv, V domains shown)
# VH: EVQLLESGGGLVQPGGSLRLSCAASGFTFSSYAMSWVRQAPGKGLEWVSWISPGGGNIYYADSVKGRFTISRDNSKNTLYLQMNSLRAEDTAVYYCARSQSGFDYWGQGTLVTVSS
# VL: B9 VL with T23S, A33S, S35T, S51Y, N53S, Q54H, T91A, Y94S
# notes: HA-tagged scFv
# B16: P015006 scFv (scFv, V domains shown)
# VH: EVQLLESGGGLVQPGGSLRLSCAASGFTFSNYSMSWVRQAPGKGLEWVSAISHGSGSIYYADSVKGRFTISRDNSKNTLYLQMNSLRAEDTAVYYCAKPISAWSHIRMSYAYGMDVWGQGTLVTVSS
# VL: B6 VL with S23T, T33Y, F34V, N35S, Q38R, A51S, H54N, A91T
# notes: HA-tagged scFv
# B17: P015009 scFv (scFv, V domains shown)
# VH: EVQLLESGGGLVQPGGSLRLSCAASGFTFSNYSMSWVRQAPGKGLEWVSGIYSGNSNTYYADSVKGRFTISRDNSKNTLYLQMNSLRAEDTAVYYCAKDSRATHHRWHYYDNAMDVWGQGTLVTVSS
# VL: B9 VL with N31S, A33Y, Q38R, N53S, Q54N, Y94S, N97S
# notes: HA-tagged scFv
# B18: P015013 scFv (scFv, V domains shown)
# VH: EVQLLESGGGLVQPGGSLRLSCAASGFTFSSYDMSWVRQVPGKGLEWVSWISHGGGSIYYADSVKGRFTISRDNSKNTLYLQMNSLRAEDTAVYYCARDLSNRLFTGFDYWGQGTLVAVSS
# VL: B9 VL with T23S, N31S, A33S, S35Y, L47P, N53S, Q54H, G98A
# notes: HA-tagged scFv
# B19: P015003 scFv (scFv, V domains shown)
# VH: EVQLLESGGGLVQPGGSLRLSCAASGFTFSSYAMSWVRQAPGKGLEWVSGISPGGSSKYYADSVKGRFTISRDNSKNTLYLQMNSLRAEDTAVYYCARGPHRAIDTAFDYWGQGTLVTVSS
# VL: B6 VL with S23T, T33Y, F34V, N35S, Q38R, A51S, H54N, A91T
# notes: HA-tagged scFv
# B20: P015001 scFv (scFv, V domains shown)
# VH: EVQLLESGGGLAQPGGSLRLSCAASGFTFSNYDMSWVRQAPGKGPEWVSGIYSGNSNTYYADSVKGRFTISRDNSKNTLYLQMNSLRAEDTAVYYCARDLQYTEWAGFDYWGQGTLVTVSS
# VL: B6 VL with T33D, F34V, N35T, A51D, H54K, A94D, A98G
# notes: scFv of a phage-library clone from a bacterial extract, with HA tag
# B21: P015011 scFv (scFv, V domains shown)
# VH: EVQLLESGGGLVQPGGSLRLSCAASGFTFSNYAMSWVRQAPGKGLEWVSGISPDGGSIYYADSVKGRFTISRDNSKNTLYLQMNSLRAEDTAVYYCAKAARLSPSMNYSYAYGMDVWGQGTLVTVSS
# VL: B9 VL with A33Y, N53S, Q54H
# notes: HA-tagged scFv
# Biological target: ROR1 expressed on cell surface (Jeko-1 cell line, AMB-LC-0003T and AMB-LC-0002T patient-derived lung cancer … (human, UniProt Q01973 30-937))
# Assay: cell-based or functional assay
# Chain of ROR1 expressed on cell surface (Jeko-1 cell line, AMB-LC-0003T and AMB-LC-0002T patient-derived lung cancer … (Q01973 30-937): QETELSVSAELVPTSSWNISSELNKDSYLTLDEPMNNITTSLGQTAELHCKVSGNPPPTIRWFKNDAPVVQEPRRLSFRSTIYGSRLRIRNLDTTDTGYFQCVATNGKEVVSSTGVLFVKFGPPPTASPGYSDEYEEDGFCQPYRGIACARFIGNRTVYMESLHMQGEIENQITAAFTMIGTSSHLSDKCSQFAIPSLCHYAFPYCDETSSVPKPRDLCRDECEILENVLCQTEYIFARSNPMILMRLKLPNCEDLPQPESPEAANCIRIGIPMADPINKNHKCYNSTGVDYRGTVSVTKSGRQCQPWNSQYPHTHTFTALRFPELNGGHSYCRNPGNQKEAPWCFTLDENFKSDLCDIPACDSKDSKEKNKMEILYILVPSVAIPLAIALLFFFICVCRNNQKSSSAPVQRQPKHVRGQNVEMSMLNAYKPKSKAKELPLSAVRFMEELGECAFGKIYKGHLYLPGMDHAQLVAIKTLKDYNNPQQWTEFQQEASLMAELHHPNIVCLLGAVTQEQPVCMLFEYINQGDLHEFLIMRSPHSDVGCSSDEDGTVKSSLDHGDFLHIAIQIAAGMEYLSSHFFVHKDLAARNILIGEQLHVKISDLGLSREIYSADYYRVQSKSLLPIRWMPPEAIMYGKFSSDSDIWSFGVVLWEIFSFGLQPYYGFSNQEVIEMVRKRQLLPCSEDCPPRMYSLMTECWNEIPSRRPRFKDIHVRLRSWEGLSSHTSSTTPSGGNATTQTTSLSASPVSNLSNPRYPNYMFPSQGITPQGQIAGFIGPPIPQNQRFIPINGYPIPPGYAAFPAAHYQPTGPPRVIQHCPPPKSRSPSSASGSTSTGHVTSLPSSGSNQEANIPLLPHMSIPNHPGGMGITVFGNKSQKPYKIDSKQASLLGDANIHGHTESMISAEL
Binder,"Fold Change of IC50, AMB-LC-0002T/AMB-LC-0003T [fold]","IC50 (nM), spheroid volume after 6 days of treatment, AMB-LC-0003T (high ROR1 expression) [nM]","IC50 (nM), spheroid volume, AMB-LC-0002T (very low ROR1 expression) [nM]"
B1,15,10.6,160

# Biological target: T1, FZD+KRD (human, UniProt Q01973)
# T1 construct: frizzled plus kringle domains, His tag; also called FK domain; human ROR1-frizzled-kringle domain
# Assay: scFv ELISA on coated domain, anti-HA-HRP, OD450
# Protocol: (§1) Thereafter, the plate was treated with each scFv and reacted for 2 hours, followed by washing four times using PBST and distilled water. After binding at room temperature for 1 hour using an HRP-conjugated anti-HA antibody (Roche, 12013819001, Anti-HA-Peroxidase, High Affinity) capable of binding to the HA tag, washing was performed six times using PBST and distilled water. After color development by adding TMB substrate solution (Thermo Scientific, 34029, 1-Step™ Ultra TMB-ELISA Substrate Solution), the color reaction was stopped with stop solution (Invitrogen, SS04, ELISA Stop Solution), and the absorbance was measured at OD 450 nm. The scFv binding to each domain was analyzed through ELISA.
# T1 sequence (Q01973 165-395 limits assumed): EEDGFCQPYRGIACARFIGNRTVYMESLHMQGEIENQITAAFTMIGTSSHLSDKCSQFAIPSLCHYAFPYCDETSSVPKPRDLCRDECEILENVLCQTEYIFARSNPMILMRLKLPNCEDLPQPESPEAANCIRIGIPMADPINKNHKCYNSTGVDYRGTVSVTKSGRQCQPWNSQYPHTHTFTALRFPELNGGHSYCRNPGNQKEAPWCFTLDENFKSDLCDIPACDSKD
row,Binder,binding result
1,B2,no binding
2,B3,no binding
3,B4,no binding
4,B5,no binding
5,B6,no binding
6,B7,no binding
7,B8,no binding
8,B9,no binding
9,B10,no binding
10,B11,no binding
11,B12,no binding
12,B13,no binding
13,B14,no binding

# Biological target: T2, Ig-like (human, UniProt Q01973)
# T2 construct: Ig-like domain, His tag; also called Ig-like domain; human ROR1-immunoglobulin domain
# Assay: scFv ELISA on coated domain, anti-HA-HRP, OD450
# Protocol: as §1
# T2 sequence (Q01973 39-151 limits assumed): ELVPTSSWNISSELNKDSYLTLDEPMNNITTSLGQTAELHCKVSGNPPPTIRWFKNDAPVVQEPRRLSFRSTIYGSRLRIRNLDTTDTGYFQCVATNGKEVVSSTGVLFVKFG
row,Binder,binding result
1,B4,no binding
2,B5,no binding
3,B15,no binding
4,B16,no binding
5,B6,binds
6,B17,no binding
7,B18,no binding
8,B9,binds
9,B19,no binding
10,B13,binds

# Biological target: T3, FZD (human, UniProt Q01973)
# T3 construct: frizzled domain, His tag; also called Frizzled domain; human ROR1-frizzled domain
# Assay: scFv ELISA on coated domain, anti-HA-HRP, OD450
# Protocol: as §1
# T3 sequence (Q01973 165-305 limits assumed): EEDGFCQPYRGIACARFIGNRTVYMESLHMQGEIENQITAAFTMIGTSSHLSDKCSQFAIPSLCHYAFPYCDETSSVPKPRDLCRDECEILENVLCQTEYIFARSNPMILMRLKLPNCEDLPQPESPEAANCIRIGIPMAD
row,Binder,binding result
1,B2,no binding
2,B3,no binding
3,B4,no binding
4,B5,no binding
5,B16,binds
6,B6,no binding
7,B17,binds
8,B7,no binding
9,B8,no binding
10,B18,binds
11,B20,no binding
12,B10,no binding
13,B21,no binding
14,B11,no binding
15,B12,no binding
16,B13,no binding
